One test deals with gum arabic. Put plainly: VHH binding to gum arabic in ELISA. Set-up: species or system acacia tree. As for the experimental part:
Titration of VHH antibody fragments was performed on ELISA plates (Maxisorp, Nunc) coated with 100 μl per well 100 μg/ml gum arabic in 50 mM carbonate pH9.6. Plates were coated at 4° C. overnight and coating was continued at room temperature for 1 hour on the next day. Plates were washed three times with PBS/0.05%-TWEEN®-20 and blocked with 5% skimmed milk in PBS for 1 hour. Four-fold serial dilutions of purified VHH antibody fragments were prepared in 1% MPBS/0.05%-TWEEN®-20 in polypropylene 96-well plates. Antibody concentrations ranged from 3 μg/ml to 12 ng/ml. Antibody dilutions were transferred to the gum arabic-coated plates and VHH antibody fragments were allowed to bind for 1 hour at room temperature. Bound VHH were detected with sequential incubations with monoclonal mouse anti-histidine antibodies (Abd Serotec) and rabbit anti-mouse IgG whole molecule antibodies conjugated with alkaline phosphatase (RaM/AP) (Sigma) in 1% MPBS/0.05%-TWEEN®-20. Unbound antibodies were removed by washing three times with PBS/0.05%-TWEEN®-20 after each antibody incubation. The plates were washed an additional two times with PBS and 100 μl pNPP disodium hexahydrate substrate (Sigma) was added to each well. The absorbance at 405 nm was measured and plotted as function of antibody concentration (see Table 1).

Another test deals with T1, potato lectin (Sigma) (potato, UniProt Q9S8M0 23-323).
T1 construct: Bought glycoprotein, coated on ELISA plates
T1 sequence (looked up): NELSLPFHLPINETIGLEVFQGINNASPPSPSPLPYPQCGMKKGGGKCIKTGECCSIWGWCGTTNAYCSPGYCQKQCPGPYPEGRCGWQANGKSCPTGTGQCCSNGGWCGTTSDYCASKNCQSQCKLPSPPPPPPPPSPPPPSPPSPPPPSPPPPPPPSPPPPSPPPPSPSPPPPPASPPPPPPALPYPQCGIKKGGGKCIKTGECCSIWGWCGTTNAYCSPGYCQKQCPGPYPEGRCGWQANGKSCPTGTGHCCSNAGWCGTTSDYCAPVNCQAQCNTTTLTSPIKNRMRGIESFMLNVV
Put plainly: ELISA, potato lectin coated at 100 ug/ml, VHH at 3 ug/ml, anti-histidine detection. Here is the method:
(§1) ELISA plates (Maxisorp, Nunc) coated with 100 μl per well 100 μg/ml potato lectin (Sigma) in PBS were coated at 4° C. overnight and coating was continued at room temperature for 1 hour on the next day. Plates were washed three times with PBS/0.05%-TWEEN®-20 and blocked with 5% skimmed milk in PBS for 1 hour. VHH (3 μg/ml) were transferred to the potato lectin-coated plates and VHH antibody fragments were allowed to bind for 1 hour at room temperature. Bound VHH were detected with sequential incubations with monoclonal mouse anti-histidine antibodies (Abd Serotec) and rabbit anti-mouse IgG whole molecule antibodies conjugated with alkaline phosphatase (RaM/AP) (Sigma) in 1% MPBS/0.05%-TWEEN®-20. Unbound antibodies were removed by washing three times with PBS/0.05%-TWEEN®-20 after each antibody incubation. The plates were washed an additional two times with PBS and 100 μl pNPP disodium hexahydrate substrate (Sigma) was added to each well and the absorbance at 405 nm was measured (see Table 2).

The next test concerns the target T2, potato lectin (Solanum tuberosum, UniProt Q9S8M0).
T2 sequence (Q9S8M0 23-323): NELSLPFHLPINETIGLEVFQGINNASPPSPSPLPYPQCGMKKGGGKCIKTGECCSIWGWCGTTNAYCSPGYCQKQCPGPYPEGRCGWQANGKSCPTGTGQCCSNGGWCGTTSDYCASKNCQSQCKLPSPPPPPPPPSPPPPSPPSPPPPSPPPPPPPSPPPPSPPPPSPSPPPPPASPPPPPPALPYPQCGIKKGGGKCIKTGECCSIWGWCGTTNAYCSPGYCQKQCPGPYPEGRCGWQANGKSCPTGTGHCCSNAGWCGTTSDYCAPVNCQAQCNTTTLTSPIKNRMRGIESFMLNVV
Put plainly: VHH binding to potato lectin in ELISA. Particulars: blank wells; VHH 3 μg/ml. Here is the method: as §1
(In general: An ELISA detects its analyte on a solid surface through an enzyme-linked reagent.)

For a further test, the system named is potato leaf surface. Put plainly: VHH binding to leaf discs (microscopy). Also noted: species or system potato (variety Désirée). Particulars: 5 μg/ml in PBS, anti-histidine Alexa-488 detection. Here is the method: VHH binding to non-fixed leaf discs of potato (variety Désirée), black nightshade, grass, wheat or azalea was investigated. For comparison, binding of CBM3a to non-fixed leaf discs of potato (variety Désirée) was analyzed in parallel. Leaf discs were prepared by punching a fresh potato leaf with a 5 mm belt hole puncher tool. Leaf discs were put immediately in wells of a 96-well plate containing 200 μl per well 5% MPBS or PBS, and incubated for 30 minutes. Leaf discs were transferred to solutions containing 5 μg/ml VHH antibody fragment, respectively 5 μg/ml CBM3a in 2% MPBS or PBS and incubated for 60-90 minutes. Unbound VHH or CBM3a proteins were removed by washing three times with 2% MPBS or PBS. Bound VHH or CBM3a proteins were detected with incubation with monoclonal mouse anti-histidine antibodies directly conjugated with Alexa-488 fluorescent dye (Abd Serotec) in 1% MPBS for 1 hour. Unbound antibodies were removed by washing three times with PBS. Leaf discs were put on glass slides, covered with cover slips, and analyzed by microscopy or on a macrozoom microscope system (Nikon) or a SP5 confocal microscope system (Leica).

Where [1] appears, read: Table 2, gum arabic coat, VHH 3 μg/ml.
Setting [2] is: [VHH] 0.0117188 μg/ml (0.78125 nM), gum arabic 100 μg/ml.
Setting [3] is: [VHH] 0.04688 μg/ml (3.125 nM), gum arabic 100 μg/ml.
Setting [4] is: [VHH] 0.1875 μg/ml (12.5 nM), gum arabic 100 μg/ml.
[5] abbreviates: [VHH] 0.75 μg/ml (50 nM), gum arabic 100 μg/ml.
Setting [6] is: [VHH] 3 μg/ml (200 nM), gum arabic 100 μg/ml.
Setting [7] is: [VHH] 3 μg/ml (200 nM), no gum arabic coat (−).

B1: VHH 5C4 (VHH)
VHH: QVQLQESGGGLVQPGGSLRLSCAASGFSLRYFGIGWFRQVAGKEREPVSCSNVRDGNTYYADSVKGRFTISRDNVRNTLYLQMNSLKPEDTAVYSCATTDCEATTWGTYRGYFGQGTQVTVSS
notes: Hexahistidine-tagged
Regarding B1, the “absorbance at 405 nm” value in the test on gum arabic (setting [1]) is reported as 0.873; in the test with gum arabic (setting [2]) it was 0.166; with gum arabic (setting [3]), 0.386; in the test with gum arabic (setting [4]), 1.036; in the test with gum arabic (setting [5]), 1.710; in the test with gum arabic (setting [6]), 2.010. For the same molecule, the “absorbance at 405 nm” value came to 0.082 in the test on gum arabic (setting [7]), 4 with potato lectin (Sigma) and 0.071 with potato lectin.

B2: VHH 5G5 (VHH)
VHH: QVQLQESGGGLVQPGGSLRLSCAASGFSLRYFGIGWFRQAAGKEREGISCSNVRDGNTYYADSVKGRFTISRDNVRNMLYLQMNNLKPDDTAVYSCATTDCEATTWGTYRGYFGQGTQVTVSS
notes: Hexahistidine-tagged
For B2, the “absorbance at 405 nm” value stood at 0.751 in the test on gum arabic (setting [1]); 0.125 in the test on gum arabic (setting [2]); 0.317 with gum arabic (setting [3]); 0.906 in the test on gum arabic (setting [4]); 1.611 in the test on gum arabic (setting [5]); 1.966 in the test on gum arabic (setting [6]). The entries for the “absorbance at 405 nm” value in the test with gum arabic (setting [7]), with potato lectin (Sigma) and with potato lectin were 0.077, 4 and 0.073, respectively.

B3: VHH7A2: plant-binding VHH, listed among SEQ ID NO:1-42 (protein, listed as Lama glama)
VHH: QVQLQESGGGSVHPGGSLTLSCLASGFSLSNYGMGWFRQAPGKEREAVSCTSVPNGHIYYAESVKGRFTIVRDNAGNSVYLQMNSLKPEDAANYFCATTDCEAAHWGTWVNYYGQGTQVTVSS
modifications: 7A2
For the molecule B3, the “absorbance at 405 nm” value in the test on gum arabic (setting [2]) was 0.088; in the test on gum arabic (setting [3]), 0.101; in the test on gum arabic (setting [4]) it was 0.216; with gum arabic (setting [5]), 0.677; in the test on gum arabic (setting [6]), 1.391; in the test on gum arabic (setting [7]), 0.075.

B4: VHH 5D4 (VHH)
VHH: QVQLQESGGGLVQPGGSLRLSCAASGFDMRRFGIGWFRQVAGKEREGVSCSNVHDGTTYYTNDVKGRFTIVRDNTKNMLYLQMNKLRPEDTAVYSCATTDCEATAWGTYRGYFGQGTQVTVSS
notes: Hexahistidine-tagged
For B4, the “absorbance at 405 nm” value in the test on gum arabic (setting [1]) is on record as 0.530; in the test on gum arabic (setting [2]) it was 0.087; in the test on gum arabic (setting [3]) it was 0.134; in the test on gum arabic (setting [4]) it was 0.378; with gum arabic (setting [5]), 0.840; in the test on gum arabic (setting [6]) it was 1.280. The “absorbance at 405 nm” value with gum arabic (setting [7]) came out at 0.075; in the test with potato lectin (Sigma) it was 4; with potato lectin it was 0.072. For the same molecule, the “binding to native potato leaf surface” value in the test on potato leaf surface is “binding leaf surface, stomata, glandular trichomes, and leaf hairs”; in the test on potato leaf surface (listed as 5D4), “clearly binding to trichomes, stomata and cuticle”.

B5: VHH5F5: plant-binding VHH, listed among SEQ ID NO:1-42 (protein, listed as Lama glama)
VHH: QVQLQESGGGLVQPGGSLRLSCAASGFPLGLYGIGWFRQAPGKEREAVSCDSVDDGSTNYLDSVKGRFTISRDNAKNMVYLQMNSLKPEDTAVYYCATTDCDAKAWGTWTNYRGQGTQVTVSS
modifications: 5F5
In the case of B5, the “absorbance at 405 nm” value was 0.093 in the test with gum arabic (setting [2]); 0.100 in the test with gum arabic (setting [3]); 0.191 in the test with gum arabic (setting [4]); 0.476 in the test with gum arabic (setting [5]); 0.959 in the test on gum arabic (setting [6]); 0.090 in the test on gum arabic (setting [7]).

B6: VHH7C2: plant-binding VHH, listed among SEQ ID NO:1-42 (protein, listed as Lama glama)
VHH: QVQLQESGGGLVQPGGSLRLSCAAFGFALANYGIGWFRQAPGKDRERVSCDSVDDGSTHYSNSVQGRFTIIRDNAKNTVFLQMNSLKAEDTAVYYCATTDCDATTWGTWINYRGQGTQVTVSS
modifications: 7C2
B6: the “absorbance at 405 nm” value is 0.088 with gum arabic (setting [2]); 0.092 with gum arabic (setting [3]); 0.090 with gum arabic (setting [4]); 0.194 with gum arabic (setting [5]); 0.461 with gum arabic (setting [6]); 0.077 in the test on gum arabic (setting [7]).

B7: VHH5E5: plant-binding VHH, listed among SEQ ID NO:1-42 (protein, listed as Lama glama)
VHH: QVQLQESGGGLVQPGGSLTLSCTASGFAMRRFGIGWFRQVVGKEREGVSCSNVHDGSTYYANYVKGRFTIVRDDTKNMLYLHMNSLRAEDTGVYSCATTDCEATAWGTYRGYFGQGTQVTVSS
modifications: 5E5
Consider B7, for which the “absorbance at 405 nm” value was determined as 0.074 in the test with gum arabic (setting [2]); 0.088 in the test on gum arabic (setting [3]); 0.185 in the test with gum arabic (setting [4]); 0.569 in the test on gum arabic (setting [5]); 1.194 in the test on gum arabic (setting [6]); 0.073 with gum arabic (setting [7]).

B8: VHH 7D2 (VHH)
VHH: QVQLQESGGGLVQPGRSLKVACAAAGFSLRYYGIGWFRQAPGKEREAVSCTSANDGSTYYRDSVRGRFTISRDDGKNTVYLQMNRLKPEDTAVYYCATTDCDATSWGTWINYYGQGTQVTVSS
notes: Hexahistidine-tagged
Turning to B8, the “absorbance at 405 nm” value is given as 0.274 with gum arabic (setting [1]); 0.083 in the test on gum arabic (setting [2]); 0.136 with gum arabic (setting [3]); 0.347 in the test on gum arabic (setting [4]); 0.906 in the test on gum arabic (setting [5]); 1.427 with gum arabic (setting [6]). Further, the “absorbance at 405 nm” value with gum arabic (setting [7]) is 0.074; in the test with potato lectin (Sigma) it was 4; with potato lectin, 0.072.

(Values after patent US20130217572A1, “SPECIFIC DELIVERY OF AGROCHEMICALS” (VRIJE UNIVERSITEIT BRUSSEL, priority 2010, published 2013).)
